B1: TPR t1 (parent)
chain: GACCAAUCUGCCCUCAGAGCUCGAGAACAUCUUCGGAUGCAGAGGAGGCAGGCUUCGGUGGCGCGAUAGCGCCAACGUCCUCAACCUCCAAUGCAUCCCACCACAUGAUGAUGCCUGAAGAGCCUUGGUUUUUUG

Variants of: B1
Experiment: polymerase ribozyme fitness, log enrichment relative to wild type (log ratio); higher = more active; in vitro selection for triplet polymerase activity
Summary of the method: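 Mutant libraries of each subunit of a heterodimeric triplet polymerase ribozyme were built by PCR and transcribed. Each library went through one round of in vitro selection in triplicate: annealing with biotinylated primer, partner subunit and triplets, frozen incubation at −7 °C, gel excision of extended constructs, streptavidin-bead capture and RT-PCR. Input and output libraries were Illumina-sequenced; only genotypes with ≥10 input reads and ≥1 read per output were kept. Fitness is log2(genotype enrichment/wild-type enrichment), using inverse-variance-weighted replicate averages.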

Going from C11U C15A A16C U33G C49G G60A G65A C79A A90C U109A to C12A A41U G45A C64A U87C A100C U116C, the “polymerase ribozyme fitness (log ratio)” value rises from -8.01 to -6.47.

Compared with C11U G120U G122U, C11U C20G G117U is lower in “polymerase ribozyme fitness (log ratio)” value: 1.38 for the first, -4.42 for the second.

Going from C11U U116G G122A C124U to C12A C28U G60A G122A U133G, the “polymerase ribozyme fitness (log ratio)” value falls from 0.369 to -2.67.

First: C11U C13A C88U
Second: C11U U32G U38G U54C C99G G120C
The “polymerase ribozyme fitness (log ratio)” value of the first is higher: -2.38 for the first, -6.93 for the second.

First: C11U C20U G63A U87C
Second: C11U G113C
The “polymerase ribozyme fitness (log ratio)” value of the first is higher: -1.21 for the first, -2.55 for the second.

Compared with C11U C13U A18G C56U U109A, C11U C28G A37G G120U U130A is higher in “polymerase ribozyme fitness (log ratio)” value: -4.43 for the first, -2.33 for the second.

Compared with C12A C70A G127U, C11U C22A is lower in “polymerase ribozyme fitness (log ratio)” value: -2.31 for the first, -4.84 for the second.

C11U C22U and C12A C40U C99U are within 0.2 log units of each other in “polymerase ribozyme fitness (log ratio)” value: -4.2 for the first, -4.15 for the second.

Compared with C12A C49G G63C C86G U131G, C12A C76U U106A is higher in “polymerase ribozyme fitness (log ratio)” value: -3.12 for the first, -1.29 for the second.

Compared with C11U G60C A84U, C11U G47A U87A G93U G113C is lower in “polymerase ribozyme fitness (log ratio)” value: -0.912 for the first, -4.49 for the second.

Compared with C11U G52A U92G C102A G122U, C12A C40A C72A U130A is higher in “polymerase ribozyme fitness (log ratio)” value: -6.57 for the first, -2.02 for the second.

First: C11U C34U
Second: C11U G58C G120U
The “polymerase ribozyme fitness (log ratio)” value of the first is lower: -3.97 for the first, 0.332 for the second.

Going from C11U A74U U109G U116A to C11U C34U G71A A121C U129C, the “polymerase ribozyme fitness (log ratio)” value rises from -6.7 to -6.13.

First: C11U C20A G42C C102U U112C C124G
Second: C11U G17U G48A C114G
The “polymerase ribozyme fitness (log ratio)” value of the first is higher: -5.12 for the first, -6.05 for the second.

Going from C12A C28G C34A C80U C123A to C11U G42C A75G U112C A121U G127A, the “polymerase ribozyme fitness (log ratio)” value rises from -6.06 to -0.694.

First: C12A A27U G63A
Second: C12A A84U U130A
The “polymerase ribozyme fitness (log ratio)” value of the first is lower: -5.2 for the first, -1.77 for the second.

Compared with C11U C53U A84G, C11U C115U is lower in “polymerase ribozyme fitness (log ratio)” value: -1.32 for the first, -1.61 for the second.

Compared with C11U C64U U78C, C11U U38A G120C is higher in “polymerase ribozyme fitness (log ratio)” value: -0.654 for the first, 0.779 for the second.

First: C12A C86A U112A
Second: C12A C22U C56U A83C U125A
The “polymerase ribozyme fitness (log ratio)” value of the first is higher: 0.277 for the first, -4.56 for the second.

Compared with C11U C85G, C12A C73U C76A G120C is higher in “polymerase ribozyme fitness (log ratio)” value: -2.37 for the first, -0.37 for the second.

Compared with C12A C72U A100U, C11U C13U C22G C82A is lower in “polymerase ribozyme fitness (log ratio)” value: -2.13 for the first, -4.12 for the second.

First: C11U C28U C82U G120U
Second: C11U U55C A121G
The “polymerase ribozyme fitness (log ratio)” value of the first is lower: -2.14 for the first, 1.39 for the second.

Compared with C11U G120C, C11U G120A is lower in “polymerase ribozyme fitness (log ratio)” value: 1.11 for the first, 0.0588 for the second.

Compared with C11U G120U, C12A C62A C72U C98U U126C is lower in “polymerase ribozyme fitness (log ratio)” value: -0.185 for the first, -2.97 for the second.

First: C11U C62G C89U A121C C124G U125A
Second: C11U C15A G39C G61C C114A
The “polymerase ribozyme fitness (log ratio)” value of the first is higher: -0.483 for the first, -5.39 for the second.

First: C11U G42A
Second: C11U C70A U129A
The “polymerase ribozyme fitness (log ratio)” value of the first is higher: -2.48 for the first, -3.59 for the second.

Compared with C12A A18U C76G G77U U96A, C12A A111G is higher in “polymerase ribozyme fitness (log ratio)” value: -4.3 for the first, 0.3 for the second.

First: C12A C70A C85G U116C
Second: C12A C15U G48C U92C U96A G122A
The “polymerase ribozyme fitness (log ratio)” value of the first is lower: -4.83 for the first, -4.12 for the second.

First: C11U U131G
Second: C12A C64A
The “polymerase ribozyme fitness (log ratio)” value of the first is higher: -1.44 for the first, -5.04 for the second.

Going from C12A A26G to C11U A74C A111U, the “polymerase ribozyme fitness (log ratio)” value falls from -1.73 to -3.83.

First: C11U C56A C104A C115G
Second: C11U C49A
The “polymerase ribozyme fitness (log ratio)” value of the first is lower: -6.27 for the first, -1.28 for the second.

C12A C20U G47U and C11U U78G A95C G113U C114G are within 0.2 log units of each other in “polymerase ribozyme fitness (log ratio)” value: -4.43 for the first, -4.56 for the second.

Going from C11U G61A C88G C94G U130C to C12A C40U U59A A111G C124A, the “polymerase ribozyme fitness (log ratio)” value rises from -4.74 to -0.777.

First: C12A A46U
Second: C11U G69U A121G
The “polymerase ribozyme fitness (log ratio)” value of the first is lower: -1.75 for the first, 2.01 for the second.

Compared with C11U C53U C72U C82G C123G, C11U U30A G61U is lower in “polymerase ribozyme fitness (log ratio)” value: -0.853 for the first, -4.45 for the second.

Going from C11U C12U C15U C53A C80U C88U C104U A111U A118G to C11U U38G G57U G69C A74G G110A, the “polymerase ribozyme fitness (log ratio)” value falls from -6.72 to -7.09.

Going from C12A C56A C80U A84U C89U A119G C123A to C11U C40G G61C A119U, the “polymerase ribozyme fitness (log ratio)” value falls from -0.802 to -2.64.

Compared with C11U C94A, C11U C124A is higher in “polymerase ribozyme fitness (log ratio)” value: -2.35 for the first, 1.7 for the second.

Going from C12A C62G U78C C79A C85G to C11U A100C, the “polymerase ribozyme fitness (log ratio)” value rises from -7.47 to -1.31.

Going from C11U G42A U96A to C11U C99U, the “polymerase ribozyme fitness (log ratio)” value rises from -3.35 to -3.13.

Compared with C11U C97U, C12A C53U C56G G135A is lower in “polymerase ribozyme fitness (log ratio)” value: -1.74 for the first, -2.18 for the second.

With C12A C40U C89A U125A U130G the “polymerase ribozyme fitness (log ratio)” value was -5.

Reference: the RNAGym collection of RNA variant scans (doi:10.1073/pnas.2313332121)
